Test results reported in patent US20170002061A1 (ALLIGATOR BIOSCIENCE, published 2017).

Assays:
[1] = target: CD40 on B cells (UniProt P25942 21-277, limits assumed); test: cell-based or functional assay
[2] = target: T1, Fc-fused CD40 (Ancell, #504-820) (human, UniProt P25942 21-193); test: ELISA, Fc-fused CD40 coated at 0.05 ug/ml, IgG in serial dilution, anti human Ig-Fc-HRP
T1 construct: not shown: Fc part of a bought fusion protein
Description: For the CD40 binding ELISA, high binding flat bottom LIA plates (Greiner #655074) were coated with Fc-fused CD40 (Ancell, #504-820) at 0.05 μg/ml, and milk powder were used at 3% for blocking and at 1% for dilution. The antibodies to be tested were added in serial dilutions starting at 2000 ng/ml and detection was carried out using HRP conjugated goat anti human Ig-Fc (Jackson ImmunoResearch, #109-035-098) and Super Signal Pico Chemiluminescent (ThermoScientific, #37069) was used as substrate.

[3] = target: T2, LTBRhfc (R&Dsystems, USA) (human, UniProt P36941 28-227, limits assumed); test: SPR (Biacore 3000), LTBRhfc amine-coupled to CM5, IgG as analyte, 37 C, pH 7.3
T2 construct: Bought protein; also called Fc-fused LTBR (R&D Systems, #629-LR); not shown: Fc part ('hfc') of a bought fusion protein
Description: The LTBR binding antibody clones were screened, selected and cloned into full IgG format as described above for CD40. Binding to LTBR for two selected anti-LTBR antibody clones was characterized by surface plasmon resonance (SPR). SPR analysis of LTBR antibodies was performed according to standard protocols. The LTBRhfc (R&Dsystems, USA) was immobilized to the BIAcore sensorchip, CM5, using conventional amine coupling. The anti-LTBR antibodies (serially diluted ⅓ from 1-0.012 nM) were analysed for binding in HBS-P (GE, BR-1003-68) at a flow rate of 30 μl/min at 37° C. and pH 7.3. The association was followed for 3 minutes and the dissociation for 10 minutes. Regeneration was performed twice using 50 mM NaOH for 30 seconds. The kinetic parameters and the affinity constants were calculated using BIAevaluation 4.1 software, and samples were run, using the Biacore 3000 instrument according to manufacturer's protocols.

T1 sequence (P25942 21-193 limits assumed): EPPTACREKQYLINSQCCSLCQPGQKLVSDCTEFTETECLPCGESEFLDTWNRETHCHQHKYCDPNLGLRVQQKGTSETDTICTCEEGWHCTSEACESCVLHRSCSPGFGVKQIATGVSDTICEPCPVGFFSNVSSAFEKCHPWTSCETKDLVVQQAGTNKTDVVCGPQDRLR
T2 sequence (P36941 28-227 limits assumed): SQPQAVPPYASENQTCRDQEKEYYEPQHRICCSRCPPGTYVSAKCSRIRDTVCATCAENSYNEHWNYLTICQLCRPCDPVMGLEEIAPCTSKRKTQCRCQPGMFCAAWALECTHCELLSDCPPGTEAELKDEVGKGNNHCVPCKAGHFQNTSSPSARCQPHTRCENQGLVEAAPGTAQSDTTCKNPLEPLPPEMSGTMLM
CD40 on B cells, sequence (P25942 21-277 limits assumed): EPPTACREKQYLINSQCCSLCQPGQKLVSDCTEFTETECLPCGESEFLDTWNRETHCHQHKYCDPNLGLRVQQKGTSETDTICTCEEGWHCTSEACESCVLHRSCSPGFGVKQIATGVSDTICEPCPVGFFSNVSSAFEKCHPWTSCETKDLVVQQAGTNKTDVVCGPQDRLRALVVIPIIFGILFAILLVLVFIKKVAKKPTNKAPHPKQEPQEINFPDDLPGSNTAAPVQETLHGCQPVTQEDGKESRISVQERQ

B1: B03 (antibody, V domains shown)
VH: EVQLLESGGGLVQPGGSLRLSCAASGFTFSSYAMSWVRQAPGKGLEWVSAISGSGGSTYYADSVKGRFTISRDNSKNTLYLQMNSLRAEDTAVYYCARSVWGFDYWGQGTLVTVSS
VL: DIQMTQSPSSLSASVGDRVTITCRASQSISSYLNWYQQKPGKAPKLLIYAASSLQSGVPSRFSGSGSGTDFTLTISSLQPEDFATYYCQQGYHVWLYTFGQGTKLEIK
EC50 B cell (ug/ml); B cell proliferation, ATP content by Cell-titer glow [1]: 0.44 µg/mL

B2: 1136/1137 (antibody, V domains shown)
VH: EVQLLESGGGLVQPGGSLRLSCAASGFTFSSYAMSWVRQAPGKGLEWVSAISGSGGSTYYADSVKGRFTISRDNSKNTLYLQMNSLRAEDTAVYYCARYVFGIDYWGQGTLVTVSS
VL: DIQMTQSPSSLSASVGDRVTITCRASQSISSYLNWYQQKPGKAPKLLIYAASSLQSGVPSRFSGSGSGTDFTLTISSLQPEDFATYYCQQAYYAGLFTFGQGTKLEIK
notes: From library AL2
EC50 B cell (ug/ml); B cell proliferation, ATP content by Cell-titer glow [1]: 1 µg/mL | EC50 [2]: 1.4 µg/mL

B3: 1146/1147 (antibody, V domains shown)
VH: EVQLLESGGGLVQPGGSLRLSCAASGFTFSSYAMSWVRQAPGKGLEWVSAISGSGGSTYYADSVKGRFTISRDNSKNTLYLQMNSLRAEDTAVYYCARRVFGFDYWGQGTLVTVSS
VL: DIQMTQSPSSLSASVGDRVTITCRASQSISSYLNWYQQKPGKAPKLLIYAASSLQSGVPSRFSGSGSGTDFTLTISSLQPEDFATYYCQQYYYYPFTFGQGTKLEIK
notes: From library AL2
EC50 B cell (ug/ml); B cell proliferation, ATP content by Cell-titer glow [1]: 3.6 µg/mL | EC50 [2]: 0.58 µg/mL

B4: 1107/1108 (antibody, V domains shown)
VH: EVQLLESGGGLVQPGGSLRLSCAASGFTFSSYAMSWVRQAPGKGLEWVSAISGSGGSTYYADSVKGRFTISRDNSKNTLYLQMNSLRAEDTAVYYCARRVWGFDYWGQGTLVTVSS
VL: DIQMTQSPSSLSASVGDRVTITCRASQSISSYLNWYQQKPGKAPKLLIYAASSLQSGVPSRFSGSGSGTDFTLTISSLQPEDFATYYCQQYGVYPFTFGQGTKLEIK
notes: From library AL1
EC50 B cell (ug/ml); B cell proliferation, ATP content by Cell-titer glow [1]: 0.7 µg/mL | EC50 [2]: 0.034 µg/mL

B5: 1148/1149 (antibody, V domains shown)
VH: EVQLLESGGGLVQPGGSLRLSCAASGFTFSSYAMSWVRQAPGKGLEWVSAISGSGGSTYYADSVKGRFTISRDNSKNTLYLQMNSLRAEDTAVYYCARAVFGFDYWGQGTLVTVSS
VL: DIQMTQSPSSLSASVGDRVTITCRASQSISSYLNWYQQKPGKAPKLLIYAASSLQSGVPSRFSGSGSGTDFTLTISSLQPEDFATYYCQQAYYFPHTFGQGTKLEIK
notes: From library AL2
EC50 B cell (ug/ml); B cell proliferation, ATP content by Cell-titer glow [1]: 2.3 µg/mL | EC50 [2]: 2.2 µg/mL

B6: LTBR-3 (antibody, V domains shown)
VH: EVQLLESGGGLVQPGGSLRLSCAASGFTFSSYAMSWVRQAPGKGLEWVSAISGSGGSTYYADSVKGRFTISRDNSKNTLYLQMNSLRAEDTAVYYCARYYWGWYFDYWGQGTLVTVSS
VL: DIQMTQSPSSLSASVGDRVTITCRASQSISSYLNWYQQKPGKAPKLLIYAASSLQSGVPSRFSGSGSGTDFTLTISSLQPEDFATYYCQQGWWYPLTFGQGTKLEIK
notes: From library AL1
Kd [3]: 0.734 nM | koff [3]: 0.00158 s⁻¹ | kon [3]: 2.23e+06 M⁻¹ s⁻¹
